# Results taken from patent publication US10138280B2, “Polypeptides targeting glycosylated MUC2 proteins, methods of synthesis, their nucleic acids and uses thereof” (INSTITUT PASTEUR, priority 2011, dated 2018).
# No end group written: not given here.
# B1: biot-MUB70: biotinylated form of MUB70 (maleimide-PEG2-biotin on N-terminal cysteine) (conjugate)
# peptide: CVHVQYIDGETDQMLRQDDLDGYTDETIPYSTAEGIKKFEGDGYELFKDNFPAGEKFDNDDTNDQFYTVIF
# Tests used:
# [1] = target: T1, human colonic mucus (Muc2) (Homo sapiens, UniProt Q02817); experiment: Immunofluorescent staining of human mucus and fixed human colon samples; conditions: human mucus extract collected on ex vivo tissues
# T1 construct: Segments of human colon (ascending, descending and sigmoid colon) were obtained from fully informed patients undergoing surgery; from tissue; host or cells: healthy human colon segments (live explants, mucus collected from them, Carnoy- or formol-fixed sections)
# Excerpt: (§1) FIGS. 4A-4B. Cy5-MUB70 is specifically binding to the glycosylated moiety of Muc2 secreted in the colon mucus layer. (FIG. 4A) Immunodetection of Muc2, Muc5ac, Muc5b and Muc6 (dotblot analysis) on human mucus extracts eluted after a pulldown assay performed with biot-MUB70 on avidin conjugated beads (see Methods). Biotin is used as a negative control. Immunodetection of Muc2 (dotblot analysis) on deglycosylated mucus extracts eluted after a pulldown assay performed with biot-MUB70 on avidin conjugated beads. Non-deglycosylated mucus extract is used as a positive control. (FIG. 4B) Co-localization of Muc2 (green) and Cy5-MUB (blue) observed on fixed (Carnoy) human colon samples. Actin is stained in red (Phall.RRX). Observations are performed using a confocal microscope. Bars is 20 μm.
# FIGS. 9A-9B. (FIG. 9A) Co-localization of Muc2 (green) and Cy5-MUB (blue) performed by immunofluorescent detection on human mucus extract collected on ex vivo tissues using an epifluorescent microscope. Bar is 50 μm. […]
# For immunofluorescence assay mouse α-MUC2 pAbs (Santa Cruz sc-15334) was diluted 1:1000 and FITC-conjugated rabbit anti-mouse was diluted 1:2000. Host cells were detected with DAPI (nuclei, […]) or using Phalloidin-Rhodamine red X (RRX)-conjugated donkey anti-mouse antibodies (Jackson Immunoresearch Antibodies) as an actin marker (stained red); both were used at a final dilution of 1:1000. […]
# [2] = target: T2, human colonic mucus and goblet cells (Homo sapiens, UniProt Q02817); experiment: Fluorescent staining of healthy human colon, formol fixed, paraffin embedded samples; conditions: fixed samples, 1 μg/mL
# T2 construct: Segments of human colon (ascending, descending and sigmoid colon) were obtained from fully informed patients undergoing surgery; from tissue; host or cells: healthy human colon segments (live explants, mucus collected from them, Carnoy- or formol-fixed sections)
# Experimental: FIG. 22. Schematic description of the Cy5-MUB40-1, Cy5-MUB40-2, Cy5-MUB40-3, Cy5-MUB40-4 peptides (SEQ ID NOS 62 to 65). Fluorescent staining of human colonic mucus was performed by the addition of 1 μg/mL of the corresponding Cy5-conjugated peptides with Phalloidin-RRX (1:100) on formol fixed, paraffin embedded samples. Image acquisition was performed using a fluorescent confocal microscope (see Methods).
# FIG. 23 Comparative staining analysis of human colonic goblet cells using Cy5-MUB70 and Cy5-MUB40-1. Fluorescent staining of human colonic mucus was performed by the addition of 1 μg/mL of the corresponding Cy5-conjugated peptides with Phalloidin-RRX (1:100) on formol fixed, paraffin embedded samples. Image acquisition was performed using a fluorescent confocal microscope (see Methods).
# FIGS. 24A-24B. Comparative human colonic mucus staining using MUB70-Cy5 on healthy tissues and mucinous carcinomas (Coic et al, JBC, 2012 (41)). Fluorescent staining of human colonic mucus was performed by the addition of 1 μg/mL of the corresponding Cy5-conjugated peptides with Phalloidin-RRX (1:100) on formol fixed, paraffin embedded samples. Image acquisition was performed using a fluorescent confocal microscope (see Methods).
# As colonic mucinous carcinomas are characterized by abnormal overproduction of Muc2 in the colon mucosa (40), the inventors have hypothesized that Cy5-MUB70 could be used as a novel fluorescent marker for the diagnosis of this pathology. […] As shown previously on a healthy colon (FIG. 3B), the luminal mucus secreted fraction is detected by Cy5-MUB70 (FIG. 24A, top panel). […] This observation might be the consequence of a higher level of mucus compaction, resulting in a lower accessibility for MUB70 to bind Muc2. […] Cy5-MUB70 has been validated as a potent innovative diagnostic tool for colonic mucinous carcinoma detection and might be optimized with alternative markers (e.g. biotin) for practical clinical applications.
# [3] = tested on: human neutrophil (PMN) granules; experiment: Human neutrophil (PMN) granule staining; assay type: cell-based; conditions: for PMN granule staining: PMN purified from human blood, fixed in 4% PFA, 1 μg/mL; for signal brightness of PMN granule staining: fixed PMN, compared among Cy5-MUB40 probes
# Experimental: FIG. 14. Staining of individual neutrophiles (white blood cells) in human blood sample. Cy5-MUB70 was incubated on ethanol 100% fixed blood sample. […] (Details are provided on the Figure). […] In particular, granules staining is achieved.
# FIG. 15. Staining of individual neutrophiles (white blood cells) purified from fresh human blood sample. Cy5-MUB70 was incubated on PFA 4% fixed neutrophiles (PFA treatment for 15 min, wash 3 times in PBS). Signal was detected as dots distributed in neutrophile cytoplasms. (Staining with Dapi 1:1000 and EB1C5 1:1000 in PBS+10% FCS+0.1% Saponin). […] In particular, granules staining is achieved.
# FIG. 29. Identification of Muc2 in neutrophile granules using MUB70-Cy5. Human neutrophil (PMN) granule staining using Cy5-MUB70. PMN were purified from healthy donor blood samples and fixed in the presence of 4% PFA. Fluorescent staining of human colonic mucus was performed by the addition of 1 μg/mL of Cy5-MUB70 (Red) with Dapi (1:100) (Blue) and 1:200 anti-Muc2 antibody (Green). Image acquisition was performed using a fluorescent confocal microscope (see Methods).
# FIG. 31. Identification of Muc2 in neutrophile granules. Human neutrophil (PMN) granule staining using Cy5-MUB40-1, Cy5-MUB40-2, Cy5-MUB40-3, Cy5-MUB40-4 peptides. Schematic description of the Cy5-conjugated peptides. PMN were purified from healthy donor blood samples and fixed in the presence of 4% PFA. Fluorescent staining of human colonic mucus was performed by the addition of 1 μg/mL of the Cy5-conjugated peptides (Green) with Dapi (1:100) (Blue) and Phalloidin-RRX (1:1000) (Red). Image acquisition was performed using a fluorescent confocal microscope (see Methods).
# The invention has also proven to be useful for the monitoring of neutrophile degranulation events, in particular by using MUB70 and/or MUB40 polypeptides or polypeptides sharing identity with MUB70 and/or MUB40 polypeptides, or fragments thereof, for labelling neutrophile granule(s).
# Muc6 = target: T3, Muc6 (Homo sapiens, UniProt Q6W4X9); experiment: Pulldown assay with dot blot immunodetection, Muc6; assay type: binding; conditions: soluble human colonic mucus extract from HT-29 MTX; detected in the input
# T3 construct: soluble human colonic mucus extracts were initially obtained from HT-29 MTX cell secretion product; endogenous in cells; host or cells: HT-29 MTX cells (secreted mucus, soluble fraction)
# T3 sequence (Q6W4X9 23-2439): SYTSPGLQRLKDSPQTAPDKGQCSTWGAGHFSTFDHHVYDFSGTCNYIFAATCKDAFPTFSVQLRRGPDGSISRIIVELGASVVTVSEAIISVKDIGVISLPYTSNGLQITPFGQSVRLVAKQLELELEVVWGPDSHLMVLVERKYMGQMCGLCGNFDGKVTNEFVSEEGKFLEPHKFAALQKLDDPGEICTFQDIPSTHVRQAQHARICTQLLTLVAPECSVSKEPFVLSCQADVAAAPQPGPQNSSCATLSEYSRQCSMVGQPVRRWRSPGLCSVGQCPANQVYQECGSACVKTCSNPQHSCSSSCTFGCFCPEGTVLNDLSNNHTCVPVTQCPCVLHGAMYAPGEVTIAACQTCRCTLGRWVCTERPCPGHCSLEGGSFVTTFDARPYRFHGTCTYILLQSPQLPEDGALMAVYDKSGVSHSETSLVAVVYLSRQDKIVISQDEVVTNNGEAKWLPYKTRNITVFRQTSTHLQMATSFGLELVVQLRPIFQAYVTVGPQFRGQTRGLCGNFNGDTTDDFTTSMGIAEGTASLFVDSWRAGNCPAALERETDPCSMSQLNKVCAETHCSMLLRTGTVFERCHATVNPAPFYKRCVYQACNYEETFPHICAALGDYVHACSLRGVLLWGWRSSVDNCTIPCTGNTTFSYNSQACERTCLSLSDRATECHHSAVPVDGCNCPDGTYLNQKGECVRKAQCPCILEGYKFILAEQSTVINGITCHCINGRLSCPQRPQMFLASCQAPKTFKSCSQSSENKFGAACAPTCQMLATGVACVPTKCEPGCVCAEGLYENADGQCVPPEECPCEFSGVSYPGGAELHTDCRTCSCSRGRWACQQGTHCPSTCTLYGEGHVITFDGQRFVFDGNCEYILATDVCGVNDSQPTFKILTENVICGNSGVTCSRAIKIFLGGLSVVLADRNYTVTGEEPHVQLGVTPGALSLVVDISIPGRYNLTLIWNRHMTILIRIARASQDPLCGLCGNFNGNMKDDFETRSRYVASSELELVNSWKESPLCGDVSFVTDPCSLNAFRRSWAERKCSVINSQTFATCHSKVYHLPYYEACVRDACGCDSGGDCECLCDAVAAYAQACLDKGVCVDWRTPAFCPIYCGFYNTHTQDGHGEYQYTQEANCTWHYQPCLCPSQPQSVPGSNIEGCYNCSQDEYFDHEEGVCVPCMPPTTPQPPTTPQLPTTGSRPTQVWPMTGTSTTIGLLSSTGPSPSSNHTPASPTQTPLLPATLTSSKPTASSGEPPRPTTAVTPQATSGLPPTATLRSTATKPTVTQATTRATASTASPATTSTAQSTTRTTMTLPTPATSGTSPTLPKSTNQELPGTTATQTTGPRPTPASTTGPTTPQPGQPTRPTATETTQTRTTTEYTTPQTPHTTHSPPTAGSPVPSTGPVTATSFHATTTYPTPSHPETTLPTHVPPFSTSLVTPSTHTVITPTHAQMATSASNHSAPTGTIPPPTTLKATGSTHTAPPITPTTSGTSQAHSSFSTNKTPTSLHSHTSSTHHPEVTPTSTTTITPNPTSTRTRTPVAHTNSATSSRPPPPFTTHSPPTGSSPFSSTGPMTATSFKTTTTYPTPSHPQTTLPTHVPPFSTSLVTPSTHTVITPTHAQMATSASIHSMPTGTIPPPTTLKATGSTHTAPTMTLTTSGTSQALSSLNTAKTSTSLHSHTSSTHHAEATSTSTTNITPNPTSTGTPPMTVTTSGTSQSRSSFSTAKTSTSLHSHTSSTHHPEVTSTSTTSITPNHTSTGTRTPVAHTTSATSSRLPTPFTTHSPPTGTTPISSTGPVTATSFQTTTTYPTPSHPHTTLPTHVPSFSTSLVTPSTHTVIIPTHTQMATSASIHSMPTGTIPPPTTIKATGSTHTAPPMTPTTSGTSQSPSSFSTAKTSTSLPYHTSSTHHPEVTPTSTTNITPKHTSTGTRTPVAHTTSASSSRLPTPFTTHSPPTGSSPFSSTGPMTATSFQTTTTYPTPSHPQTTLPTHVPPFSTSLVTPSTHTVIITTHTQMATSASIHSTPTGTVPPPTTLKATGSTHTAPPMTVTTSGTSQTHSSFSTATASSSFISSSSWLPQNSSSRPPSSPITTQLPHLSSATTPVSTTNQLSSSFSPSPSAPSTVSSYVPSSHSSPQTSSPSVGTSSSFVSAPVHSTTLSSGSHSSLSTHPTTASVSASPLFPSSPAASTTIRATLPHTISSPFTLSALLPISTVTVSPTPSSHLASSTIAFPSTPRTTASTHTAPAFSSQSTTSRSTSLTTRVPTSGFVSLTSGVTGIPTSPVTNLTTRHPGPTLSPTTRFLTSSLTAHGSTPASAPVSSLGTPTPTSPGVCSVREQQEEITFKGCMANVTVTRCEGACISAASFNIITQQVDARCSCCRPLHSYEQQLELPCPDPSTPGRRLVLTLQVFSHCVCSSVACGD
# Excerpt: as §1, with “μm. […]” for “μm.”
# (§2) Soluble mucus components used in pulldown assays (input and output) were transferred to nitrocellulose membranes (Invitrogen), which were blocked in PBS/5% milk and further incubated with the primary antibodies diluted in PBS/1% milk/0.01% Tween20 (Sigma-Aldrich) overnight. […] Antibody binding was detected with chemiluminescence (ECL kit, GE Healthcare).
# Muc2 = target: T4, Muc2 (Homo sapiens, UniProt Q02817); experiment: Pulldown assay with dot blot immunodetection, Muc2; assay type: binding
# T4 construct: human colonic mucus extracts (produced in vitro from differentiated HT-29 MTX cells, see Methods); endogenous in cells; host or cells: HT-29 MTX human colonic epithelial cells, differentiated (21 days)
# Muc5b = target: T5, Muc5b (Homo sapiens, UniProt Q9HC84); experiment: Pulldown assay with dot blot immunodetection, Muc5b; assay type: binding; conditions: soluble human colonic mucus extract from HT-29 MTX; detected in the input
# T5 construct: soluble human colonic mucus extracts were initially obtained from HT-29 MTX cell secretion product; endogenous in cells; host or cells: HT-29 MTX cells (secreted mucus, soluble fraction)
# Excerpt: as §1, with “μm. […]” for “μm.”
# as §2
# Muc5ac = target: T6, Muc5ac (Homo sapiens, UniProt P98088); experiment: Pulldown assay with dot blot immunodetection, Muc5ac; assay type: binding; conditions: soluble human colonic mucus extract from HT-29 MTX; detected in the input
# T6 construct: soluble human colonic mucus extracts were initially obtained from HT-29 MTX cell secretion product; endogenous in cells; host or cells: HT-29 MTX cells (secreted mucus, soluble fraction)
# Excerpt: as §1, with “μm. […]” for “μm.”
# as §2
# [4] = Analytical gel filtration for quaternary structure; assay type: physicochemical; conditions: gel filtration at 0.1 and 1 mg/ml; phosphate buffer
# Experimental: FIGS. 7A-7D. Biochemical properties of MUB70. (FIG. 7A) MUB70 total charge was calculated using Protein Calculator program (Scripps website). (FIG. 7B) Kytes and Doolittle hydropathy profile of MUB70 was generated using ExPASy bioinformatical tools. (FIG. 7C) Validation of biot-MUB70 purity by gel filtration chromatography on Superdex 200 5/150 GL column. (FIG. 7D) Partition coefficients (Kav) of the standard proteins (ferritin, 440 kDa; aldolase, 158 kDa; ovalbumin, 43 kDa; ribonuclease A, 13.7 kDa; aprotinin, 6.5 kDa) were calculated according to Kav=(Ve−V0)/(Vt−V0) (Ve, elution volume; V0, void volume; Vt, total volume of the gel bed) and plotted against the corresponding molecular masses. The molecular mass of biot-MUB70 calculated using the calibration curve equation: log(Mr)=3.12−3.1 Kav.
# […] Standard proteins from the gel filtration calibration kit (ferritin, aldolase, ovalbumin, ribonuclease A, aprotinin; GE Healthcare, Uppsala, Sweden) were used for calibration. As control biot-MUB70 was visualized on 10% SDS-PAGE gel stained by Coomassie.
# The theoretical molecular weight (MW) of a biotinylated MUB70 (biot-MUB70) is 8.8 kDa. […] This observation was confirmed with the fluorescent Cy5-MUB70 compound (data not shown). […] The elution profile was recorded at 280 nm. […]
molecule,measurement,setting,value
"CCN1/C(=C/C=C/C=C/C2=[N+](CCCCCC(=O)O)c3ccc(S(=O)(=O)O)cc3C2(C)C)C(C)(C)c2cc(S(=O)(=O)[O-])ccc21 [Cy5, reference compound]",human mucus binding,[1],does not have the property to bind human mucus
Cy5-MUB40-1: Cy5-conjugated MUB40-1 peptide with N-terminal cysteine (SEQ ID NO: 62) (C(Cy5)TAEGIKKFEGDGYELFKDNFPAGEKFDNDDTNDQFYTVIF; not fully specified),goblet cells binding,[2]; human colonic goblet cells,possessing globlet-cells binding properties
same,human mucus binding,[2]; human colonic mucus,functional human mucus-binding peptide
same,PMN granule staining,[3],efficiently stained
same,signal brightness of PMN granule staining,[3],brighter signal
Cy5-MUB40-2: Cy5-conjugated MUB40-2 peptide with N-terminal cysteine (SEQ ID NO: 63) (C(Cy5)GYTDETIPYSTAEGIKKFEGDGYELFKDNFPAGEKFDNDD; not fully specified),PMN granule staining,[3],efficiently stained
Cy5-MUB40-3: Cy5-conjugated MUB40-3 peptide with N-terminal cysteine (SEQ ID NO: 64) (C(Cy5)DQMLRQDDLDGYTDETIPYSTAEGIKKFEGDGYELFKDNF; not fully specified),PMN granule staining,[3],efficiently stained
Cy5-MUB40-4: Cy5-conjugated MUB40-4 peptide with N-terminal cysteine (SEQ ID NO: 65) (C(Cy5)VHVQYIDGETDQMLRQDDLDGYTDETIPYSTAEGIKKFEG; not fully specified),PMN granule staining,[3],efficiently stained
same,signal brightness of PMN granule staining,[3],brighter signal
B1,Muc6 in eluted fraction of pulldown,Muc6,absent from the eluted fraction
same,Muc2 interaction after chemical deglycosylation of mucus extract,Muc2; chemically deglycosylated mucus extract,abolished the interaction
same,Muc2 interaction after desulfatation of mucus extract,Muc2; desulfatation (glycosylsulfatase),loss of this interaction
same,Muc2 in eluted fraction of pulldown,"Muc2; soluble human colonic mucus extract from HT-29 MTX, avidin beads",immunodectected in the eluted fraction
same,Muc5b in eluted fraction of pulldown,Muc5b,absent from the eluted fraction
same,Muc5ac in eluted fraction of pulldown,Muc5ac,absent from the eluted fraction
same,quaternary structure,[4],exists as trimer
